Data reported in article doi:10.1101/2025.03.16.643581.

What follows are substances tested against CDKL5-PBM peptide, WT (FITC-labeled) (human) (assay: fluorescence polarisation).
PSD95 PDZ1 domain (domain or fragment) showed a Kd of 146 µM.
PSD95 PDZ3 domain (domain or fragment) showed a Kd of 13.3 µM.
Work on PSD95 PDZ2 domain (domain or fragment) yielded a Kd of 40.8 µM.
